Results as given in patent US20110009343A1, “MODULATORS OF AMYLOID AGGREGATION” (Praecis Pharmaceuticals, Inc., priority 1995, published 2011).
Marks after values point to notes of the source that are not given here. Numbered stars: 1 amine (or outer) side, 2 acyl side, 3 side chain; on linkers, the order of the positions; unused ones are H or OH. Square brackets hold non-standard residues; d marks the D form. Peptide text beside a SMILES is read from it. * marks the point of attachment. Cholyl = C[C@H](CCC(=O)*)[C@H]1CC[C@H]2[C@@H]3[C@H](O)C[C@@H]4C[C@H](O)CC[C@]4(C)[C@H]3C[C@H](O)[C@]12C; X2 = O=C(C1(O)C[C@H](O)[C@@H](N[*:1])[C@H]([C@H](O)[C@H](O)CO)O1)[*:2]; X3 = N=C1N[C@H]2[C@H](CS[C@H]2CCCCC(=O)*)N1; CA = not defined here

Tests used:
[1] = target: T1, Aβ1-40 (Homo sapiens, UniProt P05067); test: Nucleation assay (turbidity, A405 nm); type: biochemical;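 note: synthetic Aβ monomer polymerization followed by turbidity in 96-well plates with continuous shaking, read every 15 minutes over 5 hours, compared against wells lacking test compound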
T1 construct: (β-AP1-40) was obtained commercially from Bachem (Torrance, Calif.); purchased Bachem (Torrance, Calif.)
T1 sequence (P05067 672-711): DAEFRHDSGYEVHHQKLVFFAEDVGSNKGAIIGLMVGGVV
Text: The nucleation assay is employed to determine the ability of test compounds to alter (e.g. inhibit) the early events in formation of β-AP fibers from monomeric β-AP. […] The time delay before polymerization of β-AP monomer can be quantified as well as the extent of formation of insoluble fiber by light scattering (turbidity). Polymerization reaches equilibrium when the maximum turbidity reaches a plateau. The turbidity of a solution of natural β-AP in the absence or presence of various concentrations of a β-amyloid modulator compound is determined by measuring the apparent absorbance of the solution at 405 nm (A405 nm) over time. The threshold of sensitivity for the measurement of turbidity is in the range of 15-20 μM β-AP. […] This assay can be performed using stirring or shaking to accelerate polymerization, thereby increasing the speed of the assay. Moreover the assay can be adapted to a 96-well plate format to screen multiple compounds.
HFIP-solubilized peptide is sonicated in a waterbath sonicator for 5 mM at highest setting, then evaporated to dryness under a stream of argon. The peptide film is resuspended in anhydrous dimethylsulfoxide (DMSO) at a concentration of 6.9 mg/ml (25× concentration), sonicated for 5 mM as before, then filtered through a 0.2 micron nylon syringe filter (VWR cat. No. 28196-050). Test compounds are dissolved in DMSO at a 100× concentration. […] Ten microliters of the mixture is then added to the bottom of a well of a Corning Costar ultra low binding 96-well plate (Corning Costar, Cambridge Mass.; cat. No. 2500). Ninety microliters of water is added to the well, the plate is shaken on a rotary shaken at a constant speed at room temperature for 30 seconds, an additional 100 μl of 2×PTL buffer (20 mM NaH2PO4, 300 mM NaCl, pH 7.4) is added to the well, the plate is reshaken for 30 seconds and a baseline (t=0) turbidity reading is taken by measuring the apparent absorbance at 405 nm using a Bio-Rad Model 450 Microplate Reader. The plate is then returned to the shaker and shaken continuously for 5 hours. Turbidity readings are taken at 15 minute intervals.
β-amyloid aggregation in the absence of any modulators results in enhanced turbidity of the natural β-AP solution (i.e., an increase in the apparent absorbance at 405 nm over time).
Accordingly a fold increase in lag time of 1.0 indicates no change in lag time, whereas numbers >1.0 indicate an increase in lag time. The “% inhibition of plateau”, which is a measure of the ability of the compound to decrease the total amount of aggregation, refers to the reduction of the final turbidity in the presence of the test compound expressed as a percent of the control without the test compound.

[2] = target: T1, Aβ1-40; test: Seeded extension assay (thioflavin T fluorescence); type: biochemical; details: Table V; 25 mole % inhibitor
Procedure: The seeded extension assay can be employed to measure the rate of Aβ fiber formed in a solution of Aβ monomer following addition of polymeric Aβ fiber “seed”. The ability of test compounds to prevent further deposition of monomeric Aβ to previously deposited amyloid is determined using a direct indicator of β-sheet formation using fluorescence. In contrast with the nucleation assay, the addition of seed provides immediate nucleation and continued growth of preformed fibrils without the need for continuous mixing, and thus results in the absence of a lag time before polymerization starts. Since this assay uses static polymerization conditions, the activity of positive compounds in the nucleation assay can be confirmed in this second assay under different conditions and with an additional probe of amyloid structure.
In the seeded extension assay, monomeric Aβ140 is incubated in the presence of a “seed” nucleus (approximately ten mole percent of Aβ that has been previously allowed to polymerize under controlled static conditions). Samples of the solution are then diluted in thioflavin T (Th-T). The polymer-specific association of Th-T with Aβ produces a fluorescent complex that allows the measurement of the extent of fibril formation (Levine, H. (1993) Protein Science 2:404-410). In particular, association of Th-T with aggregated β-AP, but not monomeric or loosely associated β-AP, gives rise to a new excitation (ex) maximum at 450 nm and an enhanced emission (em) at 482 nm, compared to the 385 nm (ex) and 445 nm (em) for the free dye. Small aliquots of the polymerization mixture contain sufficient fibril to be mixed with Th-T to allow the monitoring of the reaction mixture by repeated sampling. A linear growth curve is observed in the presence of excess monomer. The formation of thioflavin T responsive β-sheet fibrils parallels the increase in turbidity observed using the nucleation assay.
To prepare the stock seed, 1 ml of the Aβ monomer preparation, is incubated for approximately 8 days at 37° C. and sheared sequentially through an 18, 23, 26 and 30 gauge needle 25, 25, 50, and 100 times respectively. 2 μl samples of the sheared material is taken for fluorescence measurements after every 50 passes through the 30 gauge needle until the fluorescence units (FU) plateau (approx. 100-150×). Test compounds are prepared by dissolving an appropriate amount of test compound in 1×PBS to a final concentration of 1 mM (10× stock). If insoluble, the compound is dissolved in 1/10 volume of DMSO and diluted in 1×PBS to 1 mM. A further 1/10 dilution is also prepared to test each candidate at both 100 μM and 10 μM.
To perform the seeded extension assay, each sample is set up with 50 μl of 200 μM monomer, 125 FU sheared seed (a variable quantity dependent on the batch of seed, routinely 3-6 μl) and 10 μl of 10× modulator solution. The sample volume is then adjusted to a final volume of 100 μl with 1×PBS. Two concentrations of each modulator typically are tested: 100 μM and 10 μM, equivalent to a 1:1 and a 1:10 molar ratio of monomer to modulator. The controls include an unseeded reaction to confirm that the fresh monomer contains no seed, and a seeded reaction in the absence of any modulators, as a reference to compare against candidate modulators. The assay is incubated at 37° C. for 6 h, taking 2 μl samples hourly for fluorescence measurements. To measure fluorescence, a 2 μl sample of Aβ is added to 400 μl of Thioflavin-T solution (50 mM Potassium Phosphate […] pH 7.5). The samples are vortexed and the fluorescence is read in a 0.5 ml micro quartz cuvette at EX 450 nm and EM 482 nm (Hitachi 4500 Fluorimeter).

[3] = Table V, 100 mole % inhibitor relative to Aβ1-40
[4] = Table II, 100 mole % vs 50 μM Aβ1-40

| % Iext'n (percent reduction of thioflavin-T fluorescence) [2] [%] | % Inucl'n (percent reduction in maximum observed turbidity) ([1]; Table V, 100 mole % inhibitor) [%] | ΔLag (ratio of lag time with test compound to lag time of control) [1, 3] | Compound | other results |
| --- | --- | --- | --- | --- |
| 51 | – | – | PPI-380: CA-LVFF-oh | % Inucl'n (percent reduction in maximum observed turbidity) ([1]; Table V, 33 mol % inhibitor): 72** %; ΔLag (ratio of lag time with test compound to lag time of control) ([1]; Table V, 33 mole % inhibitor): 1.8 |
| 10 | 76 | 2.0 | PPI-392: CA-VFFA-oh ({CA}-VFFA-OH; reading uncertain; also: printed as CA-VFFA-oh) | – |
| 75 | 33 | 4.1 | PPI-430: CA-FFVL-oh ({CA}-FFVL-OH; reading uncertain; also: printed as PPI-430: CA-FFVL-oh) | – |
| 0 | 55 | 1.8 | PPI-394: CA-VFF-oh ({CA}-Val-Phe-Phe-OH; reading uncertain; also: printed as CA-VFF-oh) | – |
| – | – | – | CC(C)C[C@H](NC(=O)[C@H](CCCCN)NC(=O)[C@H](CCC(N)=O)NC(=O)[C@H](Cc1c[nH]cn1)NC(=O)[C@H](Cc1c[nH]cn1)NC(=O)[C@@H](NC(=O)[C@H](CCC(=O)O)NC(=O)[C@H](Cc1ccc(O)cc1)NC(=O)CNC(=O)[C@H](CO)NC(=O)[C@H](CC(=O)O)NC(=O)[C@H](Cc1c[nH]cn1)NC(=O)CCCC[C@@H]1SC[C@@H]2NC(=N)N[C@@H]21)C(C)C)C(=O)N[C@H](C(=O)N[C@@H](Cc1ccccc1)C(=O)N[C@@H](Cc1ccccc1)C(=O)O)C(C)C [PPI-267, iminobiotinyl-Aβ6-20] (X3-HDSGYEVHHQKLVFF-OH) | Fold Increase in Lag Time [1, 4]: 1.6 fold |
| 0 | 1 | 1.3 | PPI-393: CA-LVF-oh | – |
| – | – | – | CC[C@H](C)[C@H](NC(=O)[C@H](C)NC(=O)CNC(=O)[C@H](CCCCN)NC(=O)[C@H](CC(N)=O)NC(=O)[C@H](CO)NC(=O)CNC(=O)[C@@H](NC(=O)[C@H](CC(=O)O)NC(=O)[C@H](CCC(=O)O)NC(=O)[C@H](C)NC(=O)CCCC[C@@H]1SC[C@@H]2NC(=N)N[C@@H]21)C(C)C)C(=O)N[C@H](C(=O)NCC(=O)N[C@@H](CC(C)C)C(=O)N[C@@H](CCSC)C(=O)O)[C@@H](C)CC [PPI-282] (X3-AEDVGSNKGAIIGLM-OH) | Fold Increase in Lag Time [1, 4]: ~1 fold |
| – | – | – | CC(C)C[C@H](NC(=O)[C@H](CCCCN)NC(=O)[C@H](CCC(N)=O)NC(=O)[C@H](Cc1c[nH]cn1)NC(=O)CC[C@@H](C)[C@H]1CC[C@H]2[C@@H]3[C@H](O)C[C@@H]4C[C@H](O)CC[C@]4(C)[C@H]3C[C@H](O)[C@]12C)C(=O)N[C@H](C(=O)N[C@@H](Cc1ccccc1)C(=O)N[C@@H](Cc1ccccc1)C(=O)O)C(C)C [PPI-348, cholyl-Aβ14-20] (Cholyl-HQKLVFF-OH) | Fold Increase in Lag Time ([1]; Table III, 33 mole %): 2.0 fold; inhibition at 33 mol % ([1]; Table V, 33 mol % inhibitor, read-out: % Inucl'n (percent reduction in maximum observed turbidity)): 70%; ΔLag (ratio of lag time with test compound to lag time of control) ([1]; Table V, 33 mole % inhibitor): 2.0 |
| 7 | −33 | 2.2 | PPI-429: CA-FFV-oh ({CA}-Phe-Phe-Val-OH; reading uncertain; also: printed as PPI-429: CA-FFV-oh) | – |
| – | – | – | CC[C@H](C)[C@H](NC(=O)[C@H](C)NC(=O)CNC(=O)[C@H](CCCCN)NC(=O)[C@H](CC(N)=O)NC(=O)[C@H](CO)NC(=O)CNC(=O)[C@@H](NC(=O)[C@H](CC(=O)O)NC(=O)[C@H](CCC(=O)O)NC(=O)[C@H](C)NC(=O)CC[C@@H](C)[C@H]1CC[C@H]2[C@@H]3[C@H](O)C[C@@H]4C[C@H](O)CC[C@]4(C)[C@H]3C[C@H](O)[C@]12C)C(C)C)C(=O)N[C@H](C(=O)NCC(=O)N[C@@H](CC(C)C)C(=O)N[C@@H](CCSC)C(=O)O)[C@@H](C)CC [PPI-279] (Cholyl-AEDVGSNKGAIIGLM-OH) | Fold Increase in Lag Time [1, 4]: 1.6 fold |
| – | 0 | 1.0 | PPI-438: CA-GFF-oh ({CA}-Gly-Phe-Phe-OH; reading uncertain; also: printed as PPI-438: CA-GFF-oh) | – |
| – | – | – | CC(C)C[C@H](NC(=O)[C@H](CCCCN)NC(=O)[C@H](CCC(N)=O)NC(=O)[C@H](Cc1c[nH]cn1)NC(=O)[C@H](Cc1c[nH]cn1)NC(=O)[C@@H](NC(=O)[C@H](CCC(=O)O)NC(=O)[C@H](Cc1ccc(O)cc1)NC(=O)CNC(=O)[C@H](CO)NC(=O)[C@H](CC(=O)O)NC(=O)[C@H](Cc1c[nH]cn1)NC(=O)CC[C@@H](C)[C@H]1CC[C@H]2[C@@H]3[C@H](O)C[C@@H]4C[C@H](O)CC[C@]4(C)[C@H]3C[C@H](O)[C@]12C)C(C)C)C(=O)N[C@H](C(=O)N[C@@H](Cc1ccccc1)C(=O)N[C@@H](Cc1ccccc1)C(N)=O)C(C)C [PPI-296] (Cholyl-HDSGYEVHHQKLVFF-NH2) | Fold Increase in Lag Time ([1]; Table III, 33 mole %): 1.8 fold |
| – | – | – | CC(C)[C@H](NC(=O)[C@H](CCC(=O)O)NC(=O)[C@H](Cc1ccc(O)cc1)NC(=O)CNC(=O)[C@H](CO)NC(=O)[C@H](CC(=O)O)NC(=O)[C@H](Cc1c[nH]cn1)NC(=O)CC[C@@H](C)[C@H]1CC[C@H]2[C@@H]3[C@H](O)C[C@@H]4C[C@H](O)CC[C@]4(C)[C@H]3C[C@H](O)[C@]12C)C(=O)N[C@@H](Cc1c[nH]cn1)C(=O)N[C@@H](Cc1c[nH]cn1)C(N)=O [PPI-331] (Cholyl-HDSGYEVHH-NH2) | Fold Increase in Lag Time ([1]; Table III, 33 mole %): 1.0 fold |
| – | – | – | CC(=O)N[C@H]1[C@H]([C@H](O)[C@H](O)CO)OC(O)(C(=O)N[C@@H](CCCCN)C(=O)N[C@@H](CC(C)C)C(=O)N[C@H](C(=O)N[C@@H](Cc2ccccc2)C(=O)N[C@@H](Cc2ccccc2)C(=O)N[C@@H](C)C(=O)N[C@@H](CCC(=O)O)C(=O)N[C@@H](CC(=O)O)C(=O)N[C@H](C(=O)NCC(=O)N[C@@H](CO)C(=O)N[C@@H](CC(N)=O)C(=O)N[C@@H](CCCCN)C(=O)NCC(=O)N[C@@H](C)C(=O)O)C(C)C)C(C)C)C[C@@H]1O (some centres unmarked) [PPI-276] (Ac-[X2]KLVFFAEDVGSNKGA-OH) | Fold Increase in Lag Time [1, 4]: ~1 fold |
| 6 | 51 | 1.0 | PPI-395: CA-FFA-oh ({CA}-Phe-Phe-Ala-OH; reading uncertain; also: printed as CA-FFA-oh) | – |

| Compound | % Iext'n (percent reduction of thioflavin-T fluorescence) [2] [%] | % Inucl'n (percent reduction in maximum observed turbidity) ([1]; Table V, 100 mole % inhibitor) [%] | ΔLag (ratio of lag time with test compound to lag time of control) [1, 3] | other results |
| --- | --- | --- | --- | --- |
| CC(C)C[C@H](NC(=O)[C@@H](N)CCCCN)C(=O)N[C@H](C(=O)N[C@@H](Cc1ccccc1)C(=O)N[C@@H](Cc1ccccc1)C(N)=O)C(C)C [PPI-387] | 39 | −9 | 1.3 | – |
| CC(C)C[C@H](N)C(=O)N[C@H](C(=O)N[C@@H](Cc1ccccc1)C(=O)N[C@@H](Cc1ccccc1)C(=O)N[C@@H](C)C(N)=O)C(C)C [PPI-405] | 70 | 11 | 1.3 | – |
| CC(C)C[C@H](NC(=O)[C@H](CCCCN)NC(=O)CC[C@@H](C)[C@H]1CC[C@H]2[C@@H]3[C@H](O)C[C@@H]4C[C@H](O)CC[C@]4(C)[C@H]3C[C@H](O)[C@]12C)C(=O)N[C@H](C(=O)N[C@@H](Cc1ccccc1)C(=O)N[C@@H](Cc1ccccc1)C(=O)O)[C@@H](C)O [PPI-369] (Cholyl-KLTFF-OH) | – | – | 1.1 | Fold Increase in Lag Time ([1]; Table IV, 100 mole %): ~1 fold; inhibition at 100 mol % ([1]; Table V, 100 mole % inhibitor, read-out: % Inucl'n (percent reduction in maximum observed turbidity)): -16% |
